Measured values from publication PMC6996395.
Entries after “also recorded” stand apart in the source; their conditions may differ.

Key:
Assay in all cases: in situ proximity ligation assay
Conditions in all cases: reference: wild-type R-region
[1] = target: CFTR (split-CFTR: front half, R-region and back half as separate polypeptides) front half, 1-634 (UniProt P13569)
[2] = target: CFTR (split-CFTR: front half, R-region and back half as separate polypeptides) back half, 837-1480 (UniProt P13569)
[3] = target: CFTR (split-CFTR: front half, R-region and back half as separate polypeptides) front half, 1-634 (UniProt P13569); remark: listed apart in the source

Chain of CFTR (split-CFTR: front half, R-region and back half as separate polypeptides) R-region, 635-836 (from UniProt P13569) S686D (P13569 1-634, stated change not applied): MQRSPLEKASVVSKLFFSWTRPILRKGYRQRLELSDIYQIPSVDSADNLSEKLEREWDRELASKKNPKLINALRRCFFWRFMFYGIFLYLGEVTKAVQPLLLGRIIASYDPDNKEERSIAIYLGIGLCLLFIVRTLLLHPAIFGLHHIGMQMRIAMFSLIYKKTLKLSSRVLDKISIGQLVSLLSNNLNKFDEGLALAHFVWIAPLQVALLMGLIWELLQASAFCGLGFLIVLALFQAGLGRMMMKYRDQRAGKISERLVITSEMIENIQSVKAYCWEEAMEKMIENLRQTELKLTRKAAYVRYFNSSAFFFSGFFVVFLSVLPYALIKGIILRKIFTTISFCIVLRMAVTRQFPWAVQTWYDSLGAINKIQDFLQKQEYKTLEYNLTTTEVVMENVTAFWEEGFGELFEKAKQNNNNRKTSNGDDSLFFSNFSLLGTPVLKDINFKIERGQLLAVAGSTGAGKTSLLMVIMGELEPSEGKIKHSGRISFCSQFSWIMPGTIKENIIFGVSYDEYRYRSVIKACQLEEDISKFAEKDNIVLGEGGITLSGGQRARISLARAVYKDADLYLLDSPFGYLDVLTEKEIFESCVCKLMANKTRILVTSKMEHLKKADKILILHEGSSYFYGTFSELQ

Substance | other: PLA CTCF ([1]; sites S686) | other: PLA CTCF ([2]; sites S686) | other: PLA CTCF ([3]; sites S686) | other: PLA CTCF ([1]; sites S641,T682) | other: PLA CTCF ([2]; sites S641,T682) | other: PLA CTCF ([3]; sites S641,T682)
CFTR (split-CFTR: front half, R-region and back half as separate polypeptides) R-region, 635-836 (from UniProt P13569) S686A | weaker; reference 3.29 ± 0.24 | weaker; reference 3.41 ± 0.20 | stronger; reference 3.90 ± 0.18; also recorded: same; reference 5.67 ± 0.55; also recorded: weaker; reference 7.91 ± 0.21 | – | – | –
CFTR (split-CFTR: front half, R-region and back half as separate polypeptides) R-region, 635-836 (from UniProt P13569) S641A/T682A | – | – | – | stronger; reference 3.29 ± 0.24 | stronger; reference 3.41 ± 0.20 | weaker; reference 3.90 ± 0.18; also recorded: stronger; reference 7.91 ± 0.21
CFTR (split-CFTR: front half, R-region and back half as separate polypeptides) R-region, 635-836 (from UniProt P13569) S686D | stronger; reference 3.29 ± 0.24 | – | same; reference 5.67 ± 0.55; also recorded: weaker; reference 7.91 ± 0.21 | – | – | –
